Consider 6 variants from IntAct's records for PubMed 17572682.

The labels stand for the following.
B1: Protein CBFA2T1 (Homo sapiens), Q06455 (parent)
chain: MISVKRNTWRALSLVIGDCRKKGNFEYCQDRTEKHSTMPDSPVDVKTQSRLTPPTMPPPPTTQGAPRTSSFTPTTLTNGTSHSPTALNGAPSPPNGFSNGPSSSSSSSLANQQLPPACGARQLSKLKRFLTTLQQFGNDISPEIGERVRTLVLGLVNSTLTIEEFHSKLQEATNFPLRPFVIPFLKANLPLLQRELLHCARLAKQNPAQYLAQHEQLLLDASTTSPVDSSELLLDVNENGKRRTPDRTKENGFDREPLHSEHPSKRPCTISPGQRYSPNNGLSYQPNGLPHPTPPPPQHYRLDDMAIAHHYRDSYRHPSHRDLRDRNRPMGLHGTRQEEMIDHRLTDREWAEEWKHLDHLLNCIMDMVEKTRRSLTVLRRCQEADREELNYWIRRYSDAEDLKKGGGSSSSHSRQQSPVNPDPVALDAHREFLHRPASGYVPEEIWKKAEEAVNEVKRQAMTELQKAVSEAERKAHDMITTERAKMERTVAEAKRQAAEDALAVINQQEDSSESCWNCGRKASETCSGCNTARYCGSFCQHKDWEKHHHICGQTLQAQQQGDTPAVSSSVTPNSGAGSPMDTPPAATPRSTTPGTPSTIETTPR

Variants of B1 are the subject of this assay. The conditions noted are these: with ncor1_human NCOR1, O75376.
Chain of ncor1_human NCOR1, O75376 (O75376 whole entry): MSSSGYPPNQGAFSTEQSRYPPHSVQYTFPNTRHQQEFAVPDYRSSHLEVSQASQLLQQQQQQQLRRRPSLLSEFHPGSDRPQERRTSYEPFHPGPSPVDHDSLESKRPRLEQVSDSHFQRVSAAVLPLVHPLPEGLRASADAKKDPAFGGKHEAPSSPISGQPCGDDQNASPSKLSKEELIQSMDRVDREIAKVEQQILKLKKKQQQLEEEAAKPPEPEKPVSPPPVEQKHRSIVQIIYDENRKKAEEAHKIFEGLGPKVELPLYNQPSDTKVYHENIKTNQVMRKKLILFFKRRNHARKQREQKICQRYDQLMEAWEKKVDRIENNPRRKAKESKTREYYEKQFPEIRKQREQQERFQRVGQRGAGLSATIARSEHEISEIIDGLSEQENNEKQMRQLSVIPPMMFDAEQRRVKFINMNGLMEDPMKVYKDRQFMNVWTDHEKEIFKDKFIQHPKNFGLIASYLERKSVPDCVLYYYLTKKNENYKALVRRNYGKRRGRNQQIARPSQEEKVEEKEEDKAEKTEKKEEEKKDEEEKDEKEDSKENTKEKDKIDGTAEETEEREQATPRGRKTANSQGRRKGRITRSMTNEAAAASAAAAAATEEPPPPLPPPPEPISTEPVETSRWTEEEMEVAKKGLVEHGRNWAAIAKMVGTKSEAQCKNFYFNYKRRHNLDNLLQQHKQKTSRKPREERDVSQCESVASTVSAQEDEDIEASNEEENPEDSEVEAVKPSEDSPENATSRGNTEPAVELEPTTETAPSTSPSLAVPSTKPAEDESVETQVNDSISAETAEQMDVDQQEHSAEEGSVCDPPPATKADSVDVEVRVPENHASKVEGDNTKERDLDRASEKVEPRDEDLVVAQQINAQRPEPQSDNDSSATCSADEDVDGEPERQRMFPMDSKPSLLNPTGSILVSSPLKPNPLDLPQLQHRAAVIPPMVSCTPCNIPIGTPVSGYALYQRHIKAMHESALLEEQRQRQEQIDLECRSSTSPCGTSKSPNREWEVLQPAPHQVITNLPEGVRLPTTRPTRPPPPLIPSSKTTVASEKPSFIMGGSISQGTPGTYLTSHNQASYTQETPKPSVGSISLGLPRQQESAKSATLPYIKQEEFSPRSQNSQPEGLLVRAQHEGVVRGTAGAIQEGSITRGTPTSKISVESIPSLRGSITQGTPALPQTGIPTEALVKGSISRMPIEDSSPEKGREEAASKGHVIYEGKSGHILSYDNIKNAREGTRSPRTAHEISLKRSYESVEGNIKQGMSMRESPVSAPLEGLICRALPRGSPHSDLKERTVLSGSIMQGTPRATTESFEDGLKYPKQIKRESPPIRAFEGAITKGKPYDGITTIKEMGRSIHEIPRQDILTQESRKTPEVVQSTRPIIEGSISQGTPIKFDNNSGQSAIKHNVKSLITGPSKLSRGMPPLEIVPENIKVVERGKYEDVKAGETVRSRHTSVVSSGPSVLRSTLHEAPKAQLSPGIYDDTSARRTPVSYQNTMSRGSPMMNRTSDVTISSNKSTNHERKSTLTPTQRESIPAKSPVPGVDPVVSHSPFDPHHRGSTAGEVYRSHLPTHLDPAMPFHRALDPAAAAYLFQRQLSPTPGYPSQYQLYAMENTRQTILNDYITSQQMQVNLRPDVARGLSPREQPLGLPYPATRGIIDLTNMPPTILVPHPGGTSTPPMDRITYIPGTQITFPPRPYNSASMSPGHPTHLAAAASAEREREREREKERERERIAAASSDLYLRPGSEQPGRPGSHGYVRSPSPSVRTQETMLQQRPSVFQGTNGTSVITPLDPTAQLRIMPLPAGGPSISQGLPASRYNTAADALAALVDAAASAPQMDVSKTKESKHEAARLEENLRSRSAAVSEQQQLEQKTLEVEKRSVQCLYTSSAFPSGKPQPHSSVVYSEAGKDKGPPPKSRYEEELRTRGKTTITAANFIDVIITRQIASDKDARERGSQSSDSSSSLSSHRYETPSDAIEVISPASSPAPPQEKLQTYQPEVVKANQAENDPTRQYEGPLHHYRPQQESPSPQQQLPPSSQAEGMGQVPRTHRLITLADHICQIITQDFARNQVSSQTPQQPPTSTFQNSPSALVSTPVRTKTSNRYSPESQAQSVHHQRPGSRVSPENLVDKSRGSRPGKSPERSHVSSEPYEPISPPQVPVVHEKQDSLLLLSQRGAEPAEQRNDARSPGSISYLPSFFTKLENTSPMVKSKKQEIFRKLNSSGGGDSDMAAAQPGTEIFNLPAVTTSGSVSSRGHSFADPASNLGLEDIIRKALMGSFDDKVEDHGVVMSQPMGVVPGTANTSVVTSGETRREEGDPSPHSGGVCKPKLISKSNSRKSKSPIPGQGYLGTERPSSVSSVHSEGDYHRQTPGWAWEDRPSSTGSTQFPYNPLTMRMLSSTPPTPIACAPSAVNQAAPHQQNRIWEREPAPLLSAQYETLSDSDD
On to T173Q, for which the “effect of a mutation on the interaction” value is “decreasing interaction”.

Take F129K: the “effect of a mutation on the interaction” value is “decreasing interaction”.

Consider F175A, for which the “effect of a mutation on the interaction” value is given as “decreasing interaction”.

On to F136A, for which the “effect of a mutation on the interaction” value is recorded as “decreasing interaction”.

As to Q170A, the “effect of a mutation on the interaction” value is given as “decreasing interaction”.

As for L177A, the “effect of a mutation on the interaction” value is “decreasing interaction”.
